The results in this text go back to patent EP1900813A1, “NOVEL PHYSIOLOGICAL SUBSTANCE NESFATIN, SUBSTANCE RELEVANT THERETO, AND USE OF THE SUBSTANCES” (Teijin Pharma Limited, priority 2005, dated 2008).

The test system of assay [1] is nesfatin. The assay can be described thus: Specificity of immunohistochemical stain of rat hypothalamus with anti-nesfatin-1 antibody after pre-reaction with peptides. In kind it is binding. The conditions noted are these: 5 µg peptide per 1 µg antibody. As for the experimental part: In a method similar to that in Working Example 4, immunohistochemical stain was carried out on tissue sections of the rat brain each containing arcuate nucleus and paraventricular nucleus, in which anti-nesfatin-1 antibody (nesfatin-1 IgG; Working Example 10) was used in stead of a anti-NAP polyclonal antibody as the primary antibody.

Assay [2] relates to nesfatin. As to the kind of experiment: Binding specificity of anti-nesfatin-1 antibody: Western blotting of rat brain extracts after pre-reaction with peptides. The conditions noted are these: 5 µg peptide per 1 µg anti-nesfatin-1 antibody, room temperature, 1 hour. As for the experimental part:
Western blotting analysis was carried out by the method described in Working Example 3 with the primary antibody being changed from anti-NAP polyclonal antibody to anti-nesfatin-1 antibody.
Background: Immunoblotting shows a protein as a band on a membrane.

Assay [3] in a line: Intraventricular administration of nesfatin-1 alone or leptin alone, amount of food intake. It is filed as in vivo, rat. The conditions noted are these: 5 pmol nesfatin-1 alone, third ventricle; vs control group (physiological saline). The method, then:
The experimental condition was similar to that in Working Example 12, and for a group that received 5 pmol of nesfatin-1 alone into the third ventricle of the rat brain immediately before the start of the dark period and a group that received 5 pmol of nesfatin-1 and 8 µg of anti-nesfatin-1 antibody (nesfatin-1 IgG), the amount of food intake for 1 hour after administration was measured and compared to that for the control group (physiological saline alone was administered). Also, for a group that received only leptin (Rat leptin: R & D Systems, 598-LP-01M) (1 µg) which is known to have an activity of suppressing food intake by intraventricular administration and a group that received leptin and anti-nesfatin-1 antibody, its effect on food intake was also studied.

A short description of assay [4]: Continuous administration of nesfatin-1 into the rat ventricle, weight of adipose tissues and muscle. In kind it is in vivo. The following applies: 5 pmol per day, third ventricle, osmotic pump, 10 days; vs physiological saline. As for the experimental part: Nesfatin-1 (5 pmol per day) or physiological saline alone (the control group) was administered into the third ventricle of a rat using an osmotic pump for 10 consecutive days (5 and 4 rats were used per group). Intraventricular administration into rats by the osmotic pump was carried out in a manner similar to that in Working Example 13.
After the administration of nesfatin-1 or physiological saline alone for 10 days, each rat was sacrificed, dissected to excise all of the abdominal subcutaneous adipose tissue, the epididymal adipose tissue (these are white adipose tissue) and the retroperitoneal brown adipose tissue, and the weight of them was measured. Also, the gastrocnemial muscles of the bilateral hind legs were harvested and the weight of them was measured. From the weight of the tissues measured, their ratio to the body weight of each individual was determined (tissue weight/body weight, mg/g). For testing of significant difference, analysis of variance was used.

Assay [5] in a line: Single administration of nesfatin-1, nesfatin-2, nesfatin-3 or nesfatin-2/3 into the third ventricle, amount of food intake. It is filed as in vivo, Wistar rats. The method, then: Samples used for intracerebral administration were PBS alone (vehicle group), or nesfatin-1, nesfatin-2, nesfatin-3 or nesfatin-2/3 prepared in Working Example 10 each dissolved in PBS, and 25 pmol was administered per individual into the third ventricle immediately before the dark period. Rats used were Wistar rats (purchased from Nippon SLC) and were housed as in Working Example 6, and among 8-9 week-old male Wistar rats, those individuals weighing 200-250 g were selected and used (N=5). The technique of intraventricular administration and the measurement of the amount of food intake in rats were carried out in a method similar to those in Workig Example 6. In the measurement of the amount of food intake, the reduced amount of food at 1 hour after administration (0-1 hr) and […] (1-3 hrs) was determined as food intake.
In the same condition above, 1, 5 or 25 pmol of nesfatin-1 as a sample was administered per rat individual into the third ventricle immediately before the dark period. In this experiment, the amount of food intake was determined at 1 hour after administration (0-1 hr).
The experimental condition was similar to that in Working Example 12, and 5 pmol of nesfatin-1 was administered into the third ventricle of the rat brain immediately before the start of the dark period, the amount decreased of the food (the amount of food intake) during 1 hour immediately after administration (0-1 hr), during 2 hours from 1 hour after the administration (1-3 hr), during 3 hours from 3 hours after the administration (3-6 hr), and during 6 hours from 6 hours after the administration (6-12 hr) was measured as the amount of food intake. As the control group, the amount of food intake by individuals that received physiological saline alone was measured.

Assay [6] in a line: Continuous intraventricular administration of nesfatin-1 by osmotic pump, amount of food intake and body weight. In kind it is in vivo, Wistar rats. The following applies: 5 pmol per day into the third ventricle, 10 consecutive days, vs physiological saline. The method, then:
The administration of nesfatin-1 was carried out into the ventricle by an osmotic pump for 10 consecutive days. Among 8 week-old male Wistar rats (purchased from Nippon SLC), those individuals weighing 200-250 g were used. The rats received intraperitoneal administration of 40 mg/kg body weight of pentobarbital sodium for anesthesia. After the hair was removed from the head, they were fixed in a brain stereotaxic apparatus (David Kopf Instruments, Model 962) and the scalp was incised and a 23G needle (guide cannula) was implanted so that the tip reaches the third ventricle (2.5 mm behind the bregma, 9.5 mm from the surface). One week after implanting the guide cannula, the animals were subjected to the experiment. The osmotic pump used was Alzet's Model 2002. […] The measurement of the amount of food intake started from the day after the cannula and the osmotic pump were implanted, and the weight of the residual food was measured at 9 a.m. every day, and by determining the difference from the weight of the food on the previous day, the amount of food intake of the day (24 hours) was calculated. From day 6 after the start of administration, body weight was measured at the time of measuring the amount of food intake, and changes in body weight were also recorded.

Setting [7] is: rat brain tissue containing the arcuate nucleus.
[8] abbreviates: rat brain tissue section containing the paraventricular nucleus.

No end group written: not given here.

For the molecule “CART: Rat Cocaine- and Amphetamine-Regulated Transcript 55-102; Peptide Institute, Inc., 4351-s (IPIYEKKYGQVPMCDAGEQCAVRKGARIGKLCDCPRGTSCNSFLLKCL; ends and bridges not checked; cysteine pairing not given here)”, the “immunological stain with anti-nesfatin-1 antibody after pre-reaction with the peptide” value (shortened to “immunological stain”) in the assay on nesfatin [1] (setting [7]) and in the assay on nesfatin [1] (setting [8]) was “does not disappear” throughout.

As for “NPY: Human, Rat Neuropeptide Y; Peptide Institute, Inc., 4158-v”, the “immunological stain” value in the assay with nesfatin [1] (setting [7]) and in the assay with nesfatin [1] (setting [8]) was “does not disappear” in each case. In addition, the “47.5 kd band of nesfatin in Western blotting after pre-reaction of anti-nesfatin-1 antibody with the peptide” value (“47.5 kd band of nesfatin” for short) in the assay on nesfatin [2] is listed as “did not disappear”.

As to “MCH: Human Melanin-Concentrating Hormone; Peptide Institute, Inc., 4369-v”, the “47.5 kd band of nesfatin” value with nesfatin [2] is “did not disappear”.

For “Orexin-A: Human, Rat, Mouse, Bovine Orexin-A; Peptide Institute, Inc., 4346-s (QPLPDCCRQKTCSCRLYELLHGAGNHAAGILTL)”, in the assay on nesfatin [2], the “47.5 kd band of nesfatin” value was “did not disappear”.

B1: recombinant nesfatin: recombinant matured mouse nesfatin (SEQ ID NO: 26) from E. coli GST-NEFA fusion protein treated with protease (protein)
chain: GSPIDVDKTKVHNTEPVENARIEPPDTGLYYDEYLKQVIEVLETDPHFREKLQKADIEEIRSGRLSQELDLVSHKVRTRLDELKRQEVGRLRMLIKAKLDALQDTGMNHHLLLKQFEHLNHQNPNTFESRDLDMLIKAATADLEQYDRTRHEEFKKYEMMKEHERREYLKTLSEEKRKEEESKFEEMKRKHEDHPKVNHPGSKDQLKEVWEETDGLDPNDFDPKTFFKLHDVNNDGFLDEQELEALFTRELEKVYNPQNAEDDMIEMEEERLRMREHVMSEIDNNKDRLVTLEEFLRATEKKEFLEPDSWETLDQQQLFTEDELKEYESIIAIQENELKKRAEELQKQKEDLQRQHDHLEAQKQEYHQAVQHLEQKKLQQGIAPSGPAGELKFEPHT
Turning to B1, the “amount of food intake for 1 hour after administration” value in assay [3] is given as “significantly decreased”.

B2: nesfatin-1: peptide of 82 residues, amino acid Nos. 25 to 106 of nesfatin; rat nesfatin-1 (SEQ ID NO: 15) by solid-phase synthesis (peptide, UniProt Q9JI85 25-106, looked up)
Nesfatin-1: VPIDVDKTKVHNVEPVESARIEPPDTGLYYDEYLKQVIEVLETDPHFREKLQKADIEEIRSGRLSQELDLVSHKVRTRLDEL
modifications: Nesfatin-1
For B2, the “immunological stain” value in the assay with nesfatin [1] (setting [7]) and in the assay on nesfatin [1] (setting [8]) was “the stain disappears” in each case. Also, in assay [4], the “ratio of tissue weight to body weight, abdominal subcutaneous adipose tissue” value was “significant decreases in the ratio of tissue weight to body weight”. Further, the “ratio of tissue weight to body weight, epididymal adipose tissue” value in assay [4] was “significant decreases in the ratio of tissue weight to body weight”. Moreover, the “ratio of tissue weight to body weight, mesenteric adipose tissue” value in assay [4] is given as “significant decreases in the ratio of tissue weight to body weight”. Also, in assay [4], the “ratio of tissue weight to body weight, retroperitoneal adipose tissue” value is given as “tended to decrease but no significant difference”. Besides, the “total tissue weight to the body weight, brown adipose tissue” value in assay [4] is reported as “no significant difference”. Also, in assay [4], the “total tissue weight to the body weight, gastrocnemial muscle” value is recorded as “no significant difference”. For the same molecule, the “amount of food intake” value in assay [5] (5 pmol, third ventricle, 0-1 hr, vs saline group (0)) was “significant decrerased amount of food intake”; in assay [5] (25 pmol into the third ventricle immediately before the dark period, 0-1 hr, vs control (PBS)) it was “marked effect on the suppression of feeding”; in assay [5] (25 pmol into the third ventricle immediately before the dark period, 1-3 hr, vs control (PBS)), “marked effect on the suppression of feeding”; in assay [5] (25 pmol, third ventricle, 0-1 hr, dose experiment, vs saline group (0)), “significant decrerased amount of food intake”; in assay [5] (1, 5 or 25 pmol per rat, third ventricle, 0-1 hr, dose relation vs saline group (0)) it was “decreased amount of food intake, with the increased amount of the administered nesfation-1”; in assay [5] (Working Example 27, 5 pmol, third ventricle, 0-1 hr, p<0.01 vs control) it was “Significant decreases in the amount of food intake”. Also, the “amount of food intake” value in assay [5] (Working Example 27, 5 pmol, third ventricle, 1-3 hr, p<0.01 vs control) is “Significant decreases in the amount of food intake”; in assay [5] (Working Example 27, 5 pmol, third ventricle, 3-6 hr, p<0.01 vs control) it was “Significant decreases in the amount of food intake”; in assay [5] (Working Example 27, 5 pmol, third ventricle, 6-12 hr, p<0.01 vs control), “an increase in the amount of food intake”. Also, the “amount of food intake of the day (24 hours)” value in assay [6] is “decrease in the amount of food intake was noted from day 1”. In assay [6], the “rate of increase in body weight” value is listed as “significantly declined”.
